The DeepSol protein solubility set

test: soluble on expression in E. coli; label from the status in PepcDB or PDB records

Sequence	soluble on expression in E. coli
MGSDKIHHHHHHDKTVKENGRTLHNGIVLPEQWPPSMIDDGVRREMSLPYISNKPTVISVNLGRQLFVDDFLIAETDMERVSHKAMFYENNPVLAPDKEWEYTFERAPYAAPFSDGIWYDESEQKFKMWYLAGAGSMHKHRQSFYTCYAESKDGKHWEKVNMDIVPGTNIVDTCDRDAATVWLDKMCPEPEKRFKLFNVEKHSGGWKIILKYSKDGIHWSEGVAQSGPVGDRTTAFYNPFTQKWAISLRQGSKADGRSRGYLENEDPEMAVSVAHSLAKGIKDKNIVLWFTPSDKELPHPEFPDVRPAIYNFDAMPYESVMLGFYAMWKGPENDLCGKLGIQKRNEIGMGYSRDGFHFYRPSYEPVMGVNETEGAWNWGNMQSVIGVPLIVGDSLYLYSSGRMKNKVMWDGFTSTGLATLRRDGFVSMHTDTEGVLVTEKIKFDGNHFFVNAQAKDLQVEIMDENGNVITGFSREDCKEMNDLNSTKQLVTWKSGKKLAALSGKIVKVKFYVTCGDLYAFWISPWDTGESRGYTGGGGPGLNPCGIDIK	not soluble
MGSDKIHHHHHHENLYFQGMRFLAYFGHLNIDVLISVDSIPREGSVNVKDLRPRFGGTAGNFAIVAQKFRIPFDLYSAVGMKTHREYLAMIESMGINTGHVEKFEDESGPICYIATDGKKQVSFMHQGAMAAWAPQLADEYEYVHFSTGPNYLDMAKSIRSKIIFDPSQEIHKYSKDELKKFHEISYMSIFNDHEYRVFREMTGLSSPKVTTIVTNGERGSSLFMDGKKYDFPAIPSSGDTVGAGDSFRAGLYLALYNRRSIEKGMIYGTIIAHHVIDDGIENFSLNMEDLERETENYRRMFTKRS	soluble
MGSDKIHHHHHHESSKSGYQTTGENNSSDYQGIIEDGEYKTSKSRGVGISQNSDNLLNLKSFEAGLTTISKDHFSTKSYIFQEGQYLNKATIQDWLGRKSSSNPEGLNPSDNGKKEANKRNPIYVQQIEEQDYMKQNNGKLELAGMTIGIGMNQKDYYQKEQYGATYSTTISKEKRIEEGKIAAKKVLARVRQKVGNNVPIVIAMFAQAPNDSLVGGYFYSYTVSKSGTDIGSWTETNIKSYVLPATEDNKLPNDNDSTSFDNFQKEVKNFFPNISNVTGQGQYKDKTLQGLHITITTQFYSETEITSFTQYVAQAAKSYLPSGIPVDIKINGSDGETQSFVSTTGGNGGYYTHVFGSY	not soluble
MGSDKIHHHHHHFEEVNTDPDSPTDVPTTNLLAYSLYYTSYRLYDRWFAMDEPMTFCGYASKMTYIDESRYNFRTGVQDTNWEYLYRILNNLKDIEKRATFNETPNMLNVSKVMQVHLMQVATDRWRDVPYTDAAKMTDGILQPKYDKQEDIYPGLLATLKEAADGFADGGSDDLGEGDLLFGGDIEKWQRYCNSMRLRLAMRISEVSPALAKETVEEVMGNPTKYPIMESNDDNAFFWWIGTDPNYYEPMADGYRTRKTEYCAADVIVDHMNTREDPRRSSYFQPTKESVEAGEPKYVGYTIGAKANAVASKYSIWGARFFTDLAGFSPYMRVAEPWFCVAEASMLGWNTGISAEDAYNKAVTYSMEENSVSAEDIADYLANAGKFTNDKKQIYYEEWVAMFKQGMEGWSLYRRTGVPDNLYPAPGRPANYSNHNVPPFRSPYPDKERNLNNANCAPFDAEVVDNLWGKQMWWDTRTGVH	not soluble
MGSDKIHHHHHHGFESDNANKAGYTPELQEYDLQKYVLNLGVMQQGIYFNYDWGRGTDWTFQTIQNLGHDMFAGYFHDMNNSFNDKNSVYALNDGWTGSAWTYTYGYIMTAAQKSEKINQEQKGLLGVTKILKVELMHRIADTYGPIVYTKFGQEEGDNVDSQEAAYRQFFKDLDEGVKLINEYKKDNAALEPFAAADILMPAGKRTLSQWVKFANSLRLRLAIRVSMSAPDLARAEVAKAMDATAGGVLESADETVAVSTESGYKNPLGTVNEGWGEVFMGATMESVLVGYNDPRLIKYYSKAEGGDIKDEKGNLIIAERNKIAGTYKGVPQGTGVTVKDENRYRLHSKSTITKQTDAILMTAAEVWFLRAEAALRGFTSENVKDCYEKGITVSCQQWGVNVGDYLTSDATPSDYVDAFEAKYDVKALIKVTPKWDGGASPEEQLERILTQKWIACYPEGYEAWTEQRRTGYPQLFKVFVNNSGGAIDTNIRIRRLPYPSDIQKNNPTQYSALKKALGGEDNGGTRLWWDTGRNF	not soluble
MGSDKIHHHHHHGGLGDKSFNDGTWAGIKQAAEELGIEAKVIQSYEQSDYIPNLSKAAEEADLVFAVGFMMTNDLFKVAKQYPDTYFVGIDITPPEGQILPNVLTFTFKEQEAAFLVGYVAAAMTKTGMVGFVGGIPIPPVERFRYGYEAGIKTYSVLHKKNVKILRGYTQDFEDPKKGKDLAMSQFAEGADIVFHASGACGNGVIEAAREKFSALAGSDKLVDLIDYYTTNGKGFFAIGVDMDQDYMAPGAVLTSAMKRVDVASYYGVVWAYEGTFEGGHRVLGISEDAVGISPMKYTKGLVPNRVIAELLYLEKLMKEGTLKVPETQEELDAFEVPQIEFPF	not soluble
MGSDKIHHHHHHGTSGTSKSSKTQLTGQSSDGDYEGVIKSGHYQTSKSRGVTNSQDSGNTYNVKSFENGMLGVSKKVFSTKSYVFQEGQYLSSSTVQNWLDRKTKSNPTGLNPKSNGSTSPTKRNPVYIQALEEQDYMTQKNNKLSLGGVTIGIAVNSVDYYKKTQYGATYETKITKAEGEAYAKKAANTVLKRLRKKSALKNVPIVIAIYRQASNDSLVGGNFIAYSENKGSATTVSKWNALSEKNYVFPIESGSSSPNSNDETSFTNFKSQVENFFPNLSGVTAQAHYSGNTLTGMHVNITTQFYSQTEIISFTQYLQTAAQKYLPSSVPIDITVSSTDSVQSFLSRSSGAKKFTSHVFNSY	not soluble
MGSDKIHHHHHHLAADQDTETQEMLLVMSDLDAQGFDQRRINLTQAELYACIEWLARFHAMFAYEAFPKEDALDDASYDGLWPIGTYWHLATRPDELEVMTDSPLKNATEAIDARLNQARFQTLVHGDAKVANFCFHKEVESLGVNGVAAVDFQYVGAGIGVKDFIYLLGSCLDEAQLVTIYDAACSHYFKSLKQQLSGRWAAEQIEALVAEWSDLLPFAWADFERFLAGWQPQHHKRNGFSQDMTQRVLKALGSVR	not soluble
MGSDKIHHHHHHLIIDANIYWLPNEIFVSEEMTNHFLRVVPREYGVYAYQREKNKNEREFVIEKPEGSENLNYFQGDYDLSVQLENMDQAGVDTGVMKLPGCQEWLDLDLCIQFNNQMAETVKKSKGRFRALAVVPPSGDADTLRELKRCIKELHMNGLQLSAHYGNKYLDDPMFRPLLKCASDLNIPVYVHHTPVPVEYNSLADYNNLRRSYGRCEDQTIAVTREIFSGMFKELPNLKMIHSMLGGGYFAYKNMFFPNDSGHGRFDANTSDVARSLKDNIYFEMSHAQPWGKAELKCAVEVLGADHIIYGSSYPVKKDWLIGGPQYVGDLPISQDEKDMLLFKNAERIYGIK	not soluble
MGSDKIHHHHHHLIKNILIMAANGQISRLIENQILNDDQFANVHLTLFLRHQSRLAQLAKNPRVTLIEGSLDRLDDVKKAMVDQDLVFIGVVDHSKGSQQTQNVIAGMKAGHVQRVIYTNVLGIYDEVPGTFGKWNKATIGNGLPSALKSDQLLEQSGLDYTTLRLPWLNDRDVKYQLTHKDETYVGVSGSRKSVADVVLKIIADPDYLKNDSVGIADPDTAGSDRLVY	not soluble
MGSDKIHHHHHHLLYRTIMVGENLESMQCEKYFESLFDVDFDYLVGLGKEMPTILFIDASKYSKDVLNDWIFAFTNIILINNNPIRAFIIRGYSEELQEFKGYYRVVSSYKSPRQIVQEIISNVNDHLDKMIGNSSRVIQMKKMLVLSMFYDGSIMILGETGSGKNLLAEVIAKLSPRGSRPFYSINCAAIPENLLESEIFGYKKGAFTGATSEKVGLIEQANNGTLFLDEIGDMPLNLQAKILAITENREFFKIGATRPIKVDVRFITATNRYDDSAMRNDLRYRLSAVKIDLPPLRERKSDISLIFDEILEKKGYLVKFENIPQDLKERFLSYSYPGNVRELINMIEEYLAVNDVVQASVNSSMSKYVKVLAEEAIVARMVNGTSYKDFLQEVYKSVSQELLLQRSEVLKNDINEIAREFGLTTRRIRDLLAELNSSAKALTPNDDDE	not soluble
